Measurements reported in patent publication US11795454B2, “Targeted delivery system” (Cedars-Sinai Medical Center, priority 2009, dated 2023).
“Also recorded” adds a separate entry of the source. Read-outs that look alike come from different tables or passages of the source.

B1: HerDox: self-assembled nanoparticle of oligonucleotide duplex, doxorubicin and HerPBK10 (conjugate)
chain: LPPRLKEMKSQESAAGSKLVLRCETSSEYSSLRFKWFKNGNELNRKNKPQNIKIQKKPGKSELRINKASLADSGEYMCKVISKLGNDSASANITIVESNEIITGMPASTEGAYVSSESPIRISVSTEGANTSSSTSTSTTGTSHLVKCAEKEKTFCVNGGECFMVKDLSNPSRYLCKCQPGFTGARCTENVPMKVQNQEKAEELYMRRAAMYEEGPPPSYESVVSAAPVAAALGSPFDAPLDPPFVPPRYLRPTGGRNSIRYSELAPLFDTTRVYLVDNKSTDVASLNYQNDHSNFLTTVIQNNDYSPGEASTQTINLDDRSHWGGDLKTILHTNMPNVNEFMFTNKFKARVMVSRLPTKDNQVELKYEWVEFTLPEGNYSETMTIDLMNNAIVEHYLKVGRQNGVLESDIGVKFDTRNFRLGFDPVTGLVMPGVYTNEAFHPDIILLPGCGVDFTHSRLSNLLGIRKRQPFQEGFRITYDDLEGGNIPALLDVDAYQASLKDDTEQGGGGAGGSNSSGSGAEENSNAAAAAMQPVEDMNDHAIRGDTFATRAEEKRAEAEAAAEAAAPAAQPEVEKPQKKPVIKPLTEDSKKRSYNLISNDSTFTQYRSWYLAYNYGDPQTGIRSWTLLCTPDVTCGSEQVYWSLPDMMQDPVTFRSTRQISNFPVVGAELLPVHSKSFYNDQAVYSQLIRQFTSLTHVFNRFPENQILARPPAPTITTVSENVPALTDHGTLPLRNSIGGVQRVTITDARRRTCPYVYKALGIVSPRVLSSRTFKKKKKKKKKK

Key:
[1] = tested on: MDA-MB-231 (HER2−) cells; test: HerDox targeted toxicity in vitro, separate cultures; type: cell-based, human; details: MDA-MB-231, day 3
Description: (§1) All treatments, N=3. FIG. 27A. Comparing cytotoxicity to HER2+ (MDAMB-435) and HER2− (MDA-MB-231) cells in separate cultures. Left, Relative survival (as % of untreated cells) on day 3 of treatment. Right, Micrograph of live cells after treatment. Control, mock (HBS) treatment. FIG. 27B, Receptor specificity of cytotoxicity. […] FIG. 27C, Toxicity to cells displaying differential HER2. Cytotoxicities from HerDox titrations were assessed on each cell line by metabolic assay and confirmed by crystal violet stain on day 3 of treatment. CD50 values (shown in log scale) were determined by non-linear regression analyses of HerDox killing curves using GraphPad Prism. The relative HER2 level of each cell line is shown next to each CD50 value. FIG. 27D, Targeting in a mixed MDA-MB-435(HER2+,GFP−)/MDA-MB-231(HER2−,GFP+) cell culture. Survival was determined by calculating the relative doubling time (DT) of experimental (exp) cells normalized by mock-treated (con) cells based on crystal violet stains (total cells) and GFP fluorescence (MDAMB-231 cells), and applying DTMDA-MB-435=DTTotal-DTMDA-MB-231 as previously described. Relative survival is shown for Day 2 of treatment. FIG. 27E, Targeted glioma cell death in vitro. U251 cells were treated once with the indicated HerDox (and competitive inhibitor where indicated) or Dox doses and measured for cell survival at the indicated time points after treatment. * P<0.05 compared to Mock.
For all in vitro treatments, cell lines were grown for ˜36 h after plating (104/well in 96-well dishes) to allow receptor re-expression, followed by media replacement with new media containing indicated constructs in reduced volume at the indicated final molarities for 4 h with rocking, followed by supplementation with additional media and continued growth for the indicated time periods. Except for the experiments performed on the U251 glioma cells (which received a one-time treatment), cells received these treatments daily while separate sets of wells were assessed for cell death by either metabolic assay (CellTiter Promega Corporation, Madison, WI, USA) or crystal violet stain each day. Where indicated, cells received competitive inhibitor (eHRG) at 10× molar excess for 30 min-1 h at 4° C. before treatment. Treatment of mixed (HER2+/HER2−) cell cultures with HerDox or Dox (0.5 uM), and cell surface receptor subunit level determination were performed as previously described.

[2] = tested on: MDA-MB-435(HER2+,GFP−)/MDA-MB-231(HER2−,GFP+) cell culture; test: Targeting in a mixed HER2+/HER2− cell culture; type: cell-based, human; details: 0.5 uM, day 2
Description: as §1, with “FIG. 27E, Targeted glioma cell death in vitro.” left out, “Mock. […]” for “Mock.”

[3] = Description: FIG. 26A. Stability in blood. […] N=3. […] Control conditions preventing digest include using heat-inactivated (HI) serum and 0° C. incubation. FIG. 26C. Assessing Dox retention in serum.
To study stability in blood, HerDox or Dox (60 uM each) were incubated in equivalent volumes of whole blood (containing 0.5 mM EDTA to prevent coagulation and freshly collected from the aorta of an anesthetized mouse following IACUC-approved procedures) for up to 60 min at 37° C., followed by centrifugation through 10K mwco filters. Retentate and filtrate fluorescences were extrapolated against a Dox calibration curve performed in blood plasma to correct for plasma-induced fluorescence shift. […] Control conditions preventing digest include using heat-inactivated serum and 0° C. incubation. […] Filtrates were collected and membranes washed 3× with HBS before collection and fluorescence measurement of retentates. All fluorescence spectra were obtained using a 515 nm cutoff filter.

[4] = tested on: MDA-MB-435 tumors; test: Therapeutic efficacy in vivo, daily i.v. injections for 7 days; parameters: species or system mouse; details: for tumor growth: 0.004 mg/kg Dox equivalent, daily i.v. for seven days
[5] = mouse, in vivo
Source text: (§2) Histology of myocardia from treated mice. Micrographs show representative H&E stained specimens from treated mice.
(§3) Female immunodeficient (nu/nu) mice (6-8 weeks; Charles River Laboratories International, Wilmington, MA, USA) received subcutaneous bilateral flank injections of 1×10^7 indicated cells and monitored until tumors reached ˜200-300 mm3, at which point the following treatments were initiated. […] To assess therapeutic efficacy, a new group of tumor-bearing mice received daily i.v. (tail vein) injections of HerDox or Dox at indicated doses for 7 days followed by continued monitoring of tumor volumes (assessed by measuring tumor length and width using calipers, and applying LxW2), animal weights, and heart function. […] Cardiac function in anesthetized mice was evaluated by a Vevo 770 High-Frequency Ultrasound system (VisualSonics, Toronto, Canada). Heart rate and body temperature were monitored. Superficial hair was removed from the region of interest with a depilatory cream (Nair) before imaging. The 2-dimensional guided M-mode images of the left ventricle were obtained in the short-axis view at the papillary level with the mouse in the supine position. All primary measurements were traced manually and digitized by goal-directed software installed within the echocardiograph. Three beats were averaged for each measurement. All measurements were done from leading edge to leading edge according to the American Society of Echocardiography guidelines. At animal study completion, tissue harvested from euthanized mice were fixed in 4% paraformaldehyde/PBS at 4° C. for 24 h followed by transfer into 20% sucrose/PBS and storage at −80° C. before immunohistochemical processing. Specimens and hematoxylin/eosin staining were prepared by AML Laboratories, Inc., Baltimore, MD, USA.

[6] = Stability in blood, ultrafiltration; type: in vitro ADME; details: 1 h at 37° C. in mouse blood
Source text: FIG. 26A. Stability in blood. […] N=3. […] FIG. 26C. Assessing Dox retention in serum.

[7] = CryoEM of HerDox particles; type: physicochemical; details: mostly round particles
Description: Sample preparation and imaging was performed by NanoImaging Services, Inc., La Jolla, CA, USA.
CryoEM was performed by NanoImaging Services, Inc. (La Jolla, CA, USA) implementing the following procedures (provided by NanoImaging Services, Inc.): Samples were preserved in vitrified ice supported by carbon coated holey carbon films on 400 mesh copper grids. All samples were prepared by applying a 3 μL drop of undiluted sample suspension to a cleaned grid, blotting away with filter paper and immediately proceeding with vitrification in liquid ethane. Grids were stored under liquid Nitrogen until transferred to the electron microscope for imaging. All grids were prepared the day the sample was delivered (complexes were assembled immediately before delivery). Electron microscopy was performed using an FEI Tecnai T12 electron microscope, operating at 120 KeV equipped with an FEI Eagle 4K×4K CCD camera. Vitreous ice grids were transferred into the electron microscope using a stage that maintains the grids at below −170 C. Images of the grid were acquired at multiple scales to assess the overall distribution of the specimen. After identifying potentially suitable target areas for imaging at lower magnifications, higher magnification images were acquired at nominal magnifications of 52,000× (0.21 nm/pixel) and 21,000× (0.50 nm/pixel). […]

[8] = Stability in complete cell culture media; type: in vitro ADME; details: up to 24 h
Description: FIG. 34A, HerDox stability in different storage conditions. HerDox was incubated at indicated times and temperatures was applied to a 10K mwco ultrafiltration membrane every other day, and retentate and filtrate A480 measured to determine relative Dox retention or release from complexes, respectively. […] FIG. 34B, Assessing stability in serum-containing media by ultrafiltration. HerDox immobilized on Ni-NTA beads (Qiagen Inc., Valencia. CA, USA) by incubation on ice for 2 h with agitation followed by free HerDox removal via bead pelleting/washing in HBS received 10% fetal bovine serum (FBS), to mimic cell culture conditions, and incubated at 37° C. with agitation for the indicated time-points. At each time-point, samples were pelleted and mean A480±SD (N=3) of supernatants (Released) and bead eluates (Retained) were measured. […] Relative Dox release or retention in serum is expressed as normalized to control (corresponding serum-lacking sample). […] Dox fluorescence (top panel) was visualized by UV excitation. […] Dox (1.6 nmoles) was added to serum coated wells and incubated for 30 min at 37° C. with agitation before supernatants were removed and the wells washed once with HBS before fluorescence spectra were measured for pre-incubation sample (Input), supernatant (Free) and wells (Serum-bound). Fluorescence spectra were obtained at Ex 485 nm/Em 520-750 nm with a 515 nm cutoff filter.

[9] = TUNEL staining of liver and kidney tissue of treated mice; details: mouse, in vivo
Source text: Control (saline-injected) mice were euthanized early due to tumor ulceration, in compliance with IACUC policy. […] FIG. 30E, TUNEL staining and quantification in liver and kidney tissue obtained from treated mice. Micrographs obtained at 20× magnification (left set of panels) show fluorescently-stained nuclei in apoptotic cells (delineated areas are enlarged in micrographs to the right). Graph summarizes relative fluorescence intensities of each treated tissue (N>200 fields per treatment).
Fixed, sectioned tissues were processed by incubation in a dry 60° C. oven for 1 h followed by sequential submersion in xylenes for 4 min×5, then hydration in 100%, 95%, 90%, 80%, 70% ethanol for 3 min, 2 times each and final submersion in water. After Proteinase K (20 ug/ml in 10 mM Tris pH 7.8) incubation and rinsing in PBS, sections were treated for TUNEL staining following the manufacturer's instructions (XXX) and assessed by confocal fluorescence imaging. Here, 10 TUNEL images at different locations per tissue were acquired using a Leica confocal SPE microscope (20×, ex: 488 nm, and em: 530 nm). Central regions of each tissue were imaged to avoid fixation artifacts. Nuclear fluorescence intensities, reflective of DNA fragmentation, were measured and averaged using ImageJ.

[10] = Cardiac function (echocardiography) and myocardial histology of treated mice
Source text: as §2, §3

Row | Molecule | toxicity / survival [1] | cell growth in mixed cell culture [2] | Dox loss from retentates [3] [%] | protection of the DNA duplex from serum degradation [3] | remaining free Dox (weak or non-specific binding to serum proteins) ([3]; mouse, serum) [%] | tumor growth [4] | tumor ablation compared with HerDox ([4]; 10× higher Dox dose (0.04 mg/kg)) | myocardial histology [5] | stroke volume, cardiac output, left ventricular internal dimension and volume ([5]; 0.004 mg/kg) | Dox release in blood (filtrate/retentate fluorescence) [6] | Dox loss from retentates ([3]; 100% mouse serum, 30 min at 37° C., 10K mwco) | particle diameter [7] [nm] | loss of Dox in complete cell culture media [8] | apoptosis in the kidney (TUNEL) [9] | apoptosis in the liver (TUNEL) [9] | myocardial histology ([10]; H&E) | stroke volume, cardiac output, left ventricular internal dimension and volume ([10]; echocardiography 25 days following injections, 0.004 mg/kg) | dose for tumor ablation lower compared to untargeted doxorubicin ([4]; intravenous delivery) [×]
1 | COc1cccc2c1C(=O)c1c(O)c3c(c(O)c1C2=O)C[C@@](O)(C(=O)CO)C[C@@H]3O[C@H]1C[C@H](N)[C@H](O)[C@H](C)O1.Cl [Dox, Doxorubicin-HCl, reference compound] | no preference | reduced efficacy | ~70 | partially protected the DNA from serum degradation | ~30 | low efficacy | slightly less effective | myofibrillar degeneration | modest to marked reductions | – | – | – | – | – | – | – | – | –
2 | B1 | – | substantially reduced HER2+ but not HER2− cell growth | – | – | – | ablation of tumor growth | – | – | – | no detectable fluorescence in filtrates nor loss from retentates | no Dox loss was detected | ~10 | no loss of Dox from the complex | Neither Dox nor HerDox showed substantial apoptosis | did not; also recorded: negligible apoptosis | normal cardiac morphology | no effect on these measurements; also recorded: no cardiac dysfunction or histological damage | > 10
